From patent publication US20090208976A1

Target: recombinant rat F1-ATPase β-subunit (purified protein) (rat) (UniProt P10719)
Test: BiaCore surface plasmon resonance, purified F1-ATPase β-subunit

Sequence of UniProt P10719 (P10719 47-529): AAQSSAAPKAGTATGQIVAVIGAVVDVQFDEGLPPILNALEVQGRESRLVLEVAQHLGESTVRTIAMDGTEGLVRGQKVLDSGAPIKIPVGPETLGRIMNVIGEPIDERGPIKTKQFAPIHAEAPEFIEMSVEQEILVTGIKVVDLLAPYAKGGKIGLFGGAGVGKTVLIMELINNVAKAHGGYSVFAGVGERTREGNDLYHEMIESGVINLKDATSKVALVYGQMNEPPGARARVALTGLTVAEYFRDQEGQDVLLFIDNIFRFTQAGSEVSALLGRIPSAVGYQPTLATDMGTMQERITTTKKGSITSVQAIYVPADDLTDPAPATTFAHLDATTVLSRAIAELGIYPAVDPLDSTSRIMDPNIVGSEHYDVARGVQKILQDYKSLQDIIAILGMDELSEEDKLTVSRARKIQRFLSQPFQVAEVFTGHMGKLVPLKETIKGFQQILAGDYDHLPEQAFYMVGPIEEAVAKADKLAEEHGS

## enterostatin (peptide)
  Kd: 150 nM
